Measured values from patent publication US20160237160A1 (Bayer, published 2016).

Legend:
Assay in all cases: ELISA, Fc fusion protein coated at 1 µg/ml, TPP-2090 at 75 nM, Amplex Red;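 further: binding reported as ELISA signal intensity in Rfu against a panel of TNF receptor superfamily members presented as Fc fusion proteins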
[1] = target: T1, Trail-R1 (TNFRSF10A) Fc fusion protein (Human, UniProt O00220 24-239)
T1 construct: extracellular domain; bought
From the text: (§1) Shown is the result of an ELISA: Y is “ELISA signal intensity [Rfu]”; X are “TNF receptor superfamily proteins tested (Fc-fusion proteins)”: 1 is “TWEAKR”; 2 is “TWEAKR”; 3 is “Apo-3”; 4 is “Trail-R1”; 5 is “Trail-R2”; 6 is “CD385”; 7 is “CD95”; 8 is “Rank”; 9 is “TNF-R1”; 10 is “TNF-R2”; 11 is “BAFF-R”; 12 is “DcR3”; 13 is “BCMA”; 14 is “TACI”; 15 is “OX40”; 16 is “CD30”; 17 is “CD27”; 18 is “CD40”; 19 is “Osteoprotegerin”; 20 is “EDAR”; 21 is “GITR”; 22 is “HVEM”; 23 is “NGF R”; 24 is “Trail R3”; 25 is “Lymphotioxin B R”; 26 is “Trail R4”; 27 is “EDA2R”; 28 is “TROY”; 29 is “RELT”; 30 is “4-1BB”.
(§2) To collect dose-response data a serial 3fold dilution of biotinylated IgG starting with a concentration of 2 μM was used as soluble binding partner. Detection was done with anti-hIgG1-HRP and Amplex Red.

[2] = target: T2, Trail-R2 (TNFRSF10B) Fc fusion protein (Human, UniProt O14763 56-210)
T2 construct: extracellular domain; bought
From the text: as §1, §2

[3] = target: T3, BAFF-R (TNFRSF13C) Fc fusion protein (Human, UniProt Q96RJ3 1-78)
T3 construct: extracellular domain; bought
From the text: as §1, §2

[4] = target: T4, BCMA (TNFRSF17) Fc fusion protein (Human, UniProt Q02223 1-54)
T4 construct: extracellular domain; bought
T4 sequence (looked up): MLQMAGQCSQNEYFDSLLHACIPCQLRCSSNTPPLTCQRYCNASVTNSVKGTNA
From the text: as §1, §2

[5] = target: T5, CD30 (TNFRSF8) Fc fusion protein (Human, UniProt P28908 19-385)
T5 construct: extracellular domain; bought
T5 sequence (looked up): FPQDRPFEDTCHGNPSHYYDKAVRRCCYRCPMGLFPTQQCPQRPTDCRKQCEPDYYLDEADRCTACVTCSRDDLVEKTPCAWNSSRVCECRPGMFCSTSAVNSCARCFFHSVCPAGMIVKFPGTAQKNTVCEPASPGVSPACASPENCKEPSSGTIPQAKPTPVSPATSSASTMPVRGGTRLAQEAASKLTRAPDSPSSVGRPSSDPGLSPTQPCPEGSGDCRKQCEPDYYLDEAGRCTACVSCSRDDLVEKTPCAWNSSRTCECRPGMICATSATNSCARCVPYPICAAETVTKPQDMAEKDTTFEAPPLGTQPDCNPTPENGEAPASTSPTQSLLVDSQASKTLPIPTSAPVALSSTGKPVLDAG
From the text: as §1, §2

[6] = target: T6, CD27 (TNFRSF7) Fc fusion protein (Human, UniProt P26842 20-191)
T6 construct: extracellular domain; bought
From the text: as §1, §2

[7] = target: T7, Osteoprotegerin (TNFRSF11B) Fc fusion protein (Human, UniProt O00300 22-194, limits assumed)
T7 construct: extracellular domain; bought
T7 sequence (looked up): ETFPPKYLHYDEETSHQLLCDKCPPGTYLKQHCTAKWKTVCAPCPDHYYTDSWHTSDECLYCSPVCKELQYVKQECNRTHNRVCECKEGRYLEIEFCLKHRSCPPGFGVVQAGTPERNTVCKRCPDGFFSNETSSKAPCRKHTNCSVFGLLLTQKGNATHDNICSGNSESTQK
From the text: as §1, §2

[8] = target: T8, NGF R (TNFRSF16) Fc fusion protein (Human, UniProt P08138 29-250)
T8 construct: extracellular domain; bought
T8 sequence (looked up): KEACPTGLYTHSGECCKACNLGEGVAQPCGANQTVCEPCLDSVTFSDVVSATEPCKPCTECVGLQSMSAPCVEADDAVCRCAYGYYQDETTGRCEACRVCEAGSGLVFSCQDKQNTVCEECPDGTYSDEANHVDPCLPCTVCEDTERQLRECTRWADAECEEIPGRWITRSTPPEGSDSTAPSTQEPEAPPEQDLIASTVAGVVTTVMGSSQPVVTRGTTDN
From the text: as §1, §2

[9] = target: T9, Trail R3 (TNFRSF10C) Fc fusion protein (Human, UniProt O14798 26-221, limits assumed)
T9 construct: extracellular domain; bought
T9 sequence (looked up): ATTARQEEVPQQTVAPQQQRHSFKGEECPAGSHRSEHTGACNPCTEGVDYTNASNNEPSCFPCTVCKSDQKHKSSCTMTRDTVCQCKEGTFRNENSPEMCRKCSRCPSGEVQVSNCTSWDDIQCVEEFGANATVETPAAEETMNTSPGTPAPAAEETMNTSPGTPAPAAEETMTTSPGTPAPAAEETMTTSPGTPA
From the text: as §1, §2

[10] = target: T10, EDA2R (TNFRSF27) Fc fusion protein (Human, UniProt Q9HAV5 1-138)
T10 construct: extracellular domain; bought
T10 sequence (looked up): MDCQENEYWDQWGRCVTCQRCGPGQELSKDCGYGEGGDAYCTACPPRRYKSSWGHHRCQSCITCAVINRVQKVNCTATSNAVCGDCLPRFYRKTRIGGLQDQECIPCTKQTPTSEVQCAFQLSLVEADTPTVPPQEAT
From the text: as §1, §2

[11] = target: T11, TROY (TNFRSF19) Fc fusion protein (Human, UniProt Q9NS68 30-170)
T11 construct: extracellular domain; bought
T11 sequence (looked up): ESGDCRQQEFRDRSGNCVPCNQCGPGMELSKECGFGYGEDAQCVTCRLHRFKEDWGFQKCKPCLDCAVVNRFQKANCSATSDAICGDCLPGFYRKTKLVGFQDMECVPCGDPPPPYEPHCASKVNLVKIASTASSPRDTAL
From the text: as §1, §2

[12] = target: T12, RELT (TNFRSF19L) Fc fusion protein (Human, UniProt Q969Z4 26-162)
T12 construct: extracellular domain; bought
T12 sequence (looked up): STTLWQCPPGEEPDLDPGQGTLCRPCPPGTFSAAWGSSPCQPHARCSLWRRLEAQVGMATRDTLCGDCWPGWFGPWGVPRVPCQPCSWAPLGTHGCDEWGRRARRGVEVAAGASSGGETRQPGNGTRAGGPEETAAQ
From the text: as §1, §2

[13] = target: T13, 4-1BB (TNFRSF9) Fc fusion protein (Human, UniProt Q07011 24-186)
T13 construct: extracellular domain; bought
From the text: as §1, §2

Measured: binding result

T13 sequence (Q07011 24-186): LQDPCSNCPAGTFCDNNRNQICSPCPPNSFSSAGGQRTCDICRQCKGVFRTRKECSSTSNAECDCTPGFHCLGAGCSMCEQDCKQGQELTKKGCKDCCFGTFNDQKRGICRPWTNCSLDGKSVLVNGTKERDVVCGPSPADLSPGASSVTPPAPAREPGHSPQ
T6 sequence (P26842 20-191): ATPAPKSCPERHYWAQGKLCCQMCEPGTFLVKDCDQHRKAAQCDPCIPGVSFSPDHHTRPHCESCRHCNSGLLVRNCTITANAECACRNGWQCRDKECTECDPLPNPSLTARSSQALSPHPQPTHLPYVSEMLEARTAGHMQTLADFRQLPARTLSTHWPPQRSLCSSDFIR
T1 sequence (O00220 24-239): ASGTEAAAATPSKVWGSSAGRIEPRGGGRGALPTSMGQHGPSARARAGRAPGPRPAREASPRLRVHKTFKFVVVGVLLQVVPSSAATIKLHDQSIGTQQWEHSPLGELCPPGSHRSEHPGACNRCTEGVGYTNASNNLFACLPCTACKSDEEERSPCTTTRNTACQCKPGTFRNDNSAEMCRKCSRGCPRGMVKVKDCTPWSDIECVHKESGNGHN

B1: TPP-2090 (antibody, human IgG1, kappa, V domains shown)
VH: EVQLLESGGGLVQPGGSLRLSCAASGFTFSPYPMIWVRQAPGKGLEWVSYISPSGGSTHYADSVKGRFTISRDNSKNTLYLQMNSLRAEDTAVYYCARGGDTYFDYFDYWGQGTLVTVSS
VL: DIQMTQSPSSLSASVGDRVTITCRASQSISGYLNWYQQKPGKAPKLLIYQASSLQSGVPSRFSGSGSGTDFTLTISSLQPEDFATYYCQQSYTSPFITFGQGTKVEIKR
notes: Human IgG1
no binding (tested: 75 nM): all assays above
